Values of other authors as cited in paper PMC4865444.

Experiments:
[1] = biological target: Nef SF2 (Human immunodeficiency virus 1) (UniProt P03407)
[2] = biological target: Nef NL4-3 (Human immunodeficiency virus 1) (UniProt P04324)

Chain of UniProt P03407 (P03407 2-210): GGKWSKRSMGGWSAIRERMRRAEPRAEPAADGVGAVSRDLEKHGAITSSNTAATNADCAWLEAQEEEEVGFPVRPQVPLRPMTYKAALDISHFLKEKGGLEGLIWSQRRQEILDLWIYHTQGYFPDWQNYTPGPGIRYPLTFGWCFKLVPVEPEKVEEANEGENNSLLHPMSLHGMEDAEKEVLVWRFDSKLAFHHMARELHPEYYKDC

**Q.** With Hck SH3 (from UniProt P08631) as the substance, how does the Kd [1] read?
**A.** Its Kd is 0.64 µM.

**Q.** What about the Kd [2] of the same substance?
**A.** Its Kd is 1.4 µM.
